Results as given in patent US20190233517A1.

Tests used:
Details in all cases: remark: other sources report otherwise
HER3, P21860 [1] = test: kinetic binding data, method not stated
Her3-his, P21860 = test: SPR
HER3, P21860 [2] = test: kinetic binding data, method not stated; remark: listed apart in the source

B1: Her3 antibody patritumab (antibody, V domains shown)
VH: QVQLQQWGAGLLKPSETLSLTCAVYGGSFSGYYWSWIRQPPGKGLEWIGEINHSGSTNYNPSLKSRVTISVETSKNQFSLKLSSVTAADTAVYYCARDKWTWYFDLWGRGTLVTVSS
VL: not shown
Kd (HER3, P21860 [1]): 900 pM | Kd (Her3-his, P21860): 1280 pM | Kd (HER3, P21860 [2]): 30.2 pM
